# Data from article PMC9621051 (mAbs, 2022).
# B1: phospholipase D3 (PLD3) (enzyme)
# chain: MKPKLMYQELKVPVEEPAGELPVNEIEAWKAAEKKARWVLLVLILAVVGFGALMTQLFLWEYGDLHLFGPNQRPAPCYDPCEAVLVESIPEGLEFPNATTSNPSTSQAWLGLLAGAHSSLDIASFYWTLTNNDTHTQEPSAQQGEEILQQLQALAPRGVKVRIAVSKPNGPLADLQSLLQSGAQVRMVDMQKLTHGVLHTKFWVVDQTHFYLGSANMDWRSLTQVKELGVVMYNCSCLARDLTKIFEAYWFLGQAGSSIPSTWPRPFDTRYNQETPMEICLNGTPALAYLASAPPPLCPSGRTPDLKALLSVVDSARSFIYIAVMNYLPTMEFSHPRRFWPAIDDGLRRAAYERGVKVRLLVSCWGHSEPSMRSFLLSLAALRDNHTHSDIQVKLFVVPADEAQARIPYARVNHNKYMVTERAVYIGTSNWSGSYFTETAGTSLLVTQNGHDGLRSQLEDVFLRDWNSLYSHNLDTAADSVGNACRLL
# Biological target: the molecule itself
# Assay: native MS
protein,measurement,value
B1,stoichiometry N,2
